Measurements taken from the DeepSol protein solubility set.

experiment: soluble on expression in E. coli; label from the status in PepcDB or PDB records

| Sequence | soluble on expression in E. coli |
| --- | --- |
| MGSDKIHHHHHHMYRKDLDHYLKQRLPKAVFLYGEFDFFIHYYIQTISALFKCDNPDIETSLFYASDYEKSQIATLLEQDSLFGGSSLVVLKLDFALHKKFKENDINLFLKALERPSHNRLIIGLYNAKSDTTKYKYTSDAIVKFFQKSPLKDEAICARFFIPKTWESLKFLQERANFLHLDISGHLLNALFEINNEDLGVSFNDLDKLAVLNAPITLEDIQELSSNAGDMDLQKLILGLFLKKSALDIYDYLLKEGKKDADILRGLERYFYQLFLFFAHIKTTGLMDAKEVLGYAPPKEIAENYAKNALRLKEAGYKRVFEIFRLWHIQSMQGQKELGFLYLTSIQKIINP | not soluble |
| MGSDKIHHHHHHMYVNRIGTFRDHPDLYGVSVYFQGCDAKPKCYMCHNPETWHLSEEYKRPSEVVTKIIDEKLSSLLRYFPKAALVFLGGEPLAPYNREEMLSLSKMFKEKYGERLTVVLFTWRLPKDIVKENLLKYVQYVDEFVMGRYLHTYRRDGFPASKNQIHIDRRTFERMIEAVLRRGHYEGSVFVRKRI | not soluble |
| MGSDKIHHHHHHMYWVSEDNVAGKPGKVLYVILPTIGCYRYRIGKPCYMCSYPAQAPRKTSQERIFGYFLEAIGKIKGKEGRFGIRIFTSGSFFDSSEVRRGTRIKIFQEIAKLDNVFEVVVETRSEIIREEWVRELVEIIEGKWFEVALGLETANDDIADISINKGSTFRDFVRASEIIHKAGAKVKTYLLFKPIFLSEGDAIEEMKRSIELAEPYTDTFSINMTNIQKGTLYEKIWERGEYRTPWLWSVVEVLKWAKRKFPGKRFLSDPVGAGSVRGPHNCGDSRDKPVERAIRKFSTTQDLRYLEVSGDCIEEWKYIVSQGLLDWQLIKSQVSPFSTE | not soluble |
| MGSDKIHHHHHHNDPNIQIATQDSLSTLNYRINQLLKNGTVTSSSKKNPEVKTDTDKTANDSTSDSRVWSKPEANVYIDIHDNMQLRSATIDAMNAWNRTGAFTFKQIDNKKNAQIIVNVVDDSGTDAAGETATTYNPATGHLLKATVHLNRYYLQNEWYGYSNNRIINTAEHELGHAIGLNHTNSVSVMYPKGSIYTIQPQDIKNLKKIYHEN | not soluble |
| MGSDKIHHHHHHPLGSPEAGDISEERQAFLRLTAVYSVMKDFRYTWSMQCFGDVLSNDATYSGSSNDAQTFTLLENYQYQADHTEILNKYRYSYQCINKANLFIRDMEMADDALFSKYDKEQMIGEAKFIRAYTYFELVKTFGGVPCYTGVLDLDHERLGRASVEEIYSVIEQDLNDAVSVLPKKSEVANYESSYAGRITKGAAIAMQTRIYLYEKKYDEVKKAFEKFQNECGGEYSLVAPEDYTWQFSLDGEHCSSSILEVNMYNSSTQSSYNVNNGNRHVLMSMPRNMTIGFGCAQPTQALADAYDAEGDVIRKKTTLLSTEEAIEIETAAKGDVAPVTDDRTGWYNRKLYLAPGQREENRGNNQPTNLRLIRLAEVYLNYAEACYFSGDIANAQKYLNEVRSHVNLAPKNHTGSQLFEDIMNERHLEFGMEGFRFFDVVRVGWGEKVFNGTKKAEFGAKTPFSAGAEVLPIPQTEIDISDGLITN | not soluble |
| MGSDKIHHHHHHPVAIIGGGPVGLAAAAHLAVRDVPFVLFEGKSEVGASILEWKHVSLFSPWKYNIDRAAKSLLEKESWKEPAGDRLPTGEQLVRDYLQPLAETKALKPYIYTNAPVQSIYRKGIDKIKDHNRENTPFIIRYKQDNDQKTLRARAVIDATGTWFSPNPIGAGGVPAIGEEEAKDSIYYGIPDVKGKDRSRYEGKTILVVGSGHSAIHTLLDLAQLKEAAPSTRILWAIRRNSPNGLFGGGQEDALPARGQLGLALEALLSKQKVELISSFEMEQIDRVEGRLSVVGVQNESPISLPLVDEIVANTGARPTVDYHRDIRYQLDSKLESVPALAPLIDPNIHSCGTVRPHGEKELRQPEKNFYIAGVKSYGRAPTFLLATGYEQVRSIVASLAGSKKEAERVELQLPKTGVCKSDFLAKRSCC | not soluble |
| MGSDKIHHHHHHQPSSNRYARVDAAILSIPDEYTKKVDTFAEYINRKFKGDEAKMRAIYVWMTHRMAYNVFTTFTSRNEVYSEEKEVQETLSTRKGVCRQFALLFKTLAGKVGIKAYLIDGYGKSGNVVLPEVHEWCVAQVNGEWYFFDPTYDTGYIEDYRFVSAPDDVYFKQLPERFIQTHMPFDPLWQFLKRPYSYSEFEKGVLESGRNVPFFCWQDSLKVYDRQSWVEQLEAARSRILANGKGNDLVDYFLQLNQANTQVGKDSEAIDVYAAATDLQNRAVDSINVFIRYRKAGFRPRKAEAQVRRMIEVSEELTLRADSLINSVHTISPQYKQALLNLRESIMDLAMQIYKHKLFLERYYATKPSLRGNLLRR | not soluble |
